Laboratory results taken from patent US10670612B2, “Immunoassay standards and measurement of clinical biomarkers using intra-assay calibration standards” (Saladax Biomedical, Inc., priority 2010, dated 2020).
Ends that are not written are not given here.

Test: Dynamic light scattering
Type: physicochemical
Conditions: phosphate buffer pH 7.4, 25° C.
Description: One set was prepared at 1.0 mg/ml, the second set was prepared at 0.10 mg/ml, and stored at room temperature. Peptides were dissolved by vortexing for 1 min, and centrifuged in a microcentrifuge for 5 min at 14,000 rpm, at room temperature. For Aβ42 samples (MSD), vials containing 0.1 mg peptide were suspended in 1.0 ml buffer, and treated as above. A volume (200 μl) of each centrifuged 1.0 mg/ml stock was transferred to a 0.5 ml polypropylene tube, and provided for NMR analysis.
The absorbance spectra of all samples were recorded (220-750 nm) using a NANODROP® ND-1000 instrument, and blanked against the buffer. Dynamic light scattering analysis was conducted on the peptides in a 384 well polystyrene plate (CORNING®, type 3540) with a Wyatt DLS DynaPro plate reader. Data collection and analysis was completed using software from the manufacturer (DYNAMICS, versions 7.0.0.94 and 7.0.1.12). Each peptide was evaluated in triplicate with 30 μl loaded per well, and overlaid with 5 μl mineral oil, to minimize evaporation. Buffer blanks were also included in the analysis for comparison. After loading the plate, a transparent adhesive sealing tape cover was applied to the plate and the plate was centrifuged for 2 min at 1000 rpm. Each sample on the plate was read 30 times, 5 sec per acquisition, maintaining a temperature of 25° C. Data sets were collected on both the 1.0 mg/ml and 0.10 mg/ml samples over the course of 27 days. The adhesive cover was removed to read the samples in the plate reader, and used to cover the plate between readings over the 27 day time course.
FIGS. 7A through 7F show dynamic light scattering data. In FIGS. 7A-F, the full length Aβ42 peptide was subjected to DLS analysis and compared to four representative modified peptides. […] FIG. 7a represents the raw data accumulated for all five peptides. Shown is the intensity autocorrelation versus time. […] FIGS. 7b-7f depict the percent mass versus the radius of the peptides. Monomeric peptides would be represented by a larger percent mass at the smaller radius size.

In the case of “DAEFRHDSGYEVHHQKEERPIGLMVGGVVIA (not fully specified) [GS#4, native Aβ42 amino acids (1-16)-EERP-native Aβ42 amino acids (32-42)]”, the “% Intensity” value (DLS Peak 1) is reported as 3.8%, the “% Mass” value (DLS Peak 1) is reported as 97.7% and the “% Pd” value (DLS Peak 1) is reported as 3.2%. The Mw-R (DLS Peak 1) was 6.0 kDa, the Radius (DLS Peak 1) was 1.3 nm and the “% Intensity” value (DLS Peak 2) was 0.6%. The “% Mass” value (DLS Peak 2) was 0.2%, the “% Pd” value (DLS Peak 2) was 0.0% and the Mw-R (DLS Peak 2) was 225.0 kDa. For the same sequence, the Radius (DLS Peak 2) was 6.0 nm, the “% Intensity” value (DLS Peak 3) was 5.2% and the “% Mass” value (DLS Peak 3) was 0.0%. For the same sequence, the “% Pd” value (DLS Peak 3) was 4.5%, the Mw-R (DLS Peak 3) was 7527.0 kDa and the Radius (DLS Peak 3) was 27.0 nm. The “% Intensity” value (DLS Peak 4) was 25.1%, the “% Mass” value (DLS Peak 4) was 0.2% and the “% Pd” value (DLS Peak 4) was 4.3%. The Mw-R (DLS Peak 4) was 283287.0 kDa and the Radius (DLS Peak 4) was 127.0 nm.
